The record followed here is paper PMC6508825, “Rice plants have three homologs of glutathione synthetase genes, one of which, OsGS2, codes for hydroxymethyl‐glutathione synthetase” (Plant Direct, 2019).

Holding throughout (conditions): 1 mmol/L gamma-glutamylcysteine, 2 mmol/L ATP, 20 mmol/L MgCl2, 50 mmol/L KCl, 1 mmol/L DTT, Tris-HCl pH 8.0, 30 °C, apparent, 0.2-10 mmol/L amino acid
Substrate in data set [1]: NCC(=O)O
Put plainly: HPLC with fluorescence detection of monobromobimane-derivatized thiol peptide product, Michaelis-Menten fit. Type of data set: biochemical, Oryza sativa. From the text: HPLC with fluorescence detection of monobromobimane-derivatized thiol peptide product, Michaelis-Menten fit on MBP-OsGS1

Substrate in data set [2]: NCC(=O)O
The data set is described as above. Type of data set: biochemical, Oryza sativa. From the text: HPLC with fluorescence detection of monobromobimane-derivatized thiol peptide product, Michaelis-Menten fit on MBP-OsGS3
This is another data set of the same source.

Substrate in data set [3]: NCC(=O)O
The data set is described as above. Type of data set: biochemical, Oryza sativa. An excerpt: HPLC with fluorescence detection of monobromobimane-derivatized thiol peptide product, Michaelis-Menten fit on MBP-OsGS2
The source holds these as a separate data set.

Substrate in data set [4]: N[C@@H](CO)C(=O)O
Put plainly: purified protein.

Broadly, the Km is the concentration of substrate that gives half-maximal velocity. One may read the Vmax as the rate approached at saturating substrate.

B1: MBP-OsGS1 (Oryza sativa Japonica Group) (protein)
chain: MSSYVTTPHHHHHHGCCSGSRRLQAPAPPARPRLVVAAAARHVALPPRRAVASRAMSAEAPLGVAPAAAEEEMAAVVDEMAEEAAVWCAVHGLVVGDRAEPRSGTIPGVGLVHAPFALLPTRFPASFWKQARELAPIFNDLVDRVSLDGEFLQDSLSRTRQVDDFTSRLLDIHAKMMEVNKEEDIRLGLHRSDYMLDSGTNSLLQIELNTISSSFPGLSSLVSELHRTLLNRHGKVLGLDSKRIPQNWAATQFAEALSMAWTEFNNKSAVIMMVVQPEERNMYDQYWLINHLKESHGVKTIRKTLAQVEAEGQVLPDGTLVVDGQTVSVVYFRAGYSPNDYPSEAEWRARLLMEQSSAIKCPSISYHLVGTKKIQQELAKPNILERFLNNKEDIAKLRKCFAGLWSLDNEEIVKTAIEKPDLFVLKPQREGGGNNIYGYDLRETLVRLQKEQGEALAAYILMQRIFPRASLTHLVQGGVCFEDLTISELGIFGAYLRNKDKVVLNNQCGYLMRTKVSSSNEGGVAAGFAVLDSILLTDEW
notes: full-length ORF, MBP fusion (pMAL-c5X), expressed in E. coli NEB Express, amylose resin purified; MBP kept
For the protein B1, in data set [1], the Km turned out to be 1.28 ± 0.10 mmol/L and the Vmax was determined as 0.759 µmol/min/mg.

B2: MBP-OsGS3 (Oryza sativa Japonica Group) (protein)
chain: MSAAAEGRPPAAAAAGEMVREATAWCALHGLVVGDRADPRSGTVPGVGLVHAPFSLLPTHLPESHWRQACELAPIFNELVDRVSLDGDFLQDSLSKTKQVDDFTSRLLEIHRKMMEINKEENIRLGLHRSDYMLDSETNSLLQIELNTISASFPGLGSLVSELHRTLIDQYGHLFCLDSKRVPGNEASSQFAKALARAWDEFNVDSAVIMMIVQPEERNMYDQYWLAKHLKESHGITTIRKTLSEVEAEGHVLPDGTLVIDGKTVSVVYFRAGYTPNDYPSEAEWAARLLLEQSSAVKCPSISYHLVGTKKIQQELARPNVLERFLENKEEITKIRKCFAGLWSLDDEEIVKSAIQKPELFVLKPQREGGGNNIYGIDVRETLIRLQKEGGDALAAYILMQRIFPKASLSNLVRGGVCHEALTISELGIYGAYLRNNDKVVMNEQSGYLMRTKVSSSDEGGVAAGFAVLDSLYLTDKAM
notes: MBP kept
On to B2, for which, in data set [2], the Km was found to be 0.408 ± 0.005 mmol/L and the Vmax turned out to be 6.6 µmol/min/mg.

B3: MBP-OsGS2 (Oryza sativa Japonica Group) (protein)
chain: MAAAAARSGAHPPSFASSLGRCRVLPVVVVRRPGGAARPSPLLAPARCAAAVGTAAPKVEGGGRRSSEQGQLAVAPARLVDELVEEALVWSSQHGLVVGDKNHPRSGKAPGVGLLHAPFALLPMSFSKVYWDQAVELAPLFNELVDRVSLDGDFLQETLARTKEVDSFTGRLLDIHAKMMKLNKKEDVRLGLTRSDYMIDGATDQLLQVELNTISTSSNGLACGVCELHRNLIRQHERELGLDPESVVGNTAIAQHAEALAGAWAEFNNQSSVVLVVVQPEERYMYDQYWITVALREMYGVTTIRKTMAAIDAEGELRPDGTLTIDGLPVAVVYFRAGYTPNDYPSEAEWRARLLIECSSAIKCPSIAHHLVGTKKIQQELAKENVLERFLDNKADIEKVRKCFAGLWSLENDSIVMSAIESPELFVLKPQREGGGNNIYGDNLRETLISLKKDGSNELAAYILMQRIFPPASLCYLVRDGTCIRENAVSEFGIFGAYLRNKDRVIINDQCGYLMRTKAASLNEGGVVAGYAFLNSVFLT
notes: as for B1
Turning to B3, in data set [3], the Km is listed as 19.3 ± 1.1 mmol/L and the Vmax is 0.459 µmol/min/mg. Moreover, in data set [4], the Km is listed as 2.64 ± 0.05 mmol/L and the Vmax is 0.524 µmol/min/mg.
